Measured values as given in patent US20090022738A1 (MICROMET, published 2009).

Columns and labels:
[1] = target: T1, human CD3 (human, UniProt P07766 23-207; P04234 22-171; P09693 23-182); assay: FACS, second experiment, crude supernatant on CD3-enriched PBMCs
T1 construct: whole, on cells; also called CD3 antigen; human CD3 complex
Procedure: (§1) In order to analyze the binding efficacy of the deimmunized constructs to CD3 and CD19 a FACS-based assay was performed. Initially, crude supernatants were tested for binding on CD3-enriched PBMCs or CD19-positive NALM-6 cells. Cells were incubated with non-diluted supernatants for 30 minutes at 8° C. Upon two wash steps the cells were labeled with an anti-His antibody (Qiagen) under the same conditions. After additional wash steps binding of the constructs was detected with a FITC-conjugated sheep anti-mouse antibody (Sigma). Cells were analyzed with a FACS Calibur cytometer (B&D). As controls supernatants of anti-CD19×anti-CD3 and GFP-transfected cells were included. […] The positive control, which was a non-deimmunized anti-CD19×anti-CD3 construct reached a MFI of around 60 showing that the deimmunized constructs comprising anti-CD3 (VH5/VL1) (SEQ ID NO.:190), anti-CD3 (VH5/VL2) (SEQ ID NO.:192), anti-CD3 (VH5/VL3) (SEQ ID NO.:194), anti-CD3 (VH7/VL1) (SEQ ID NO.:196), anti-CD3 (VH7/VL2) (SEQ ID NO.:198) and anti-CD3 (VH7/VL3) (SEQ ID NO.:200) bound CD3 with extremely high efficacy.

[2] = target: T2, CD19 (human, UniProt P15391 20-556); assay: FACS, crude supernatant on CD19-positive NALM-6 cells; negative control MFI ca. 3
T2 construct: whole, on cells; also called CD19 on NALM-6 cells
T2 sequence (looked up): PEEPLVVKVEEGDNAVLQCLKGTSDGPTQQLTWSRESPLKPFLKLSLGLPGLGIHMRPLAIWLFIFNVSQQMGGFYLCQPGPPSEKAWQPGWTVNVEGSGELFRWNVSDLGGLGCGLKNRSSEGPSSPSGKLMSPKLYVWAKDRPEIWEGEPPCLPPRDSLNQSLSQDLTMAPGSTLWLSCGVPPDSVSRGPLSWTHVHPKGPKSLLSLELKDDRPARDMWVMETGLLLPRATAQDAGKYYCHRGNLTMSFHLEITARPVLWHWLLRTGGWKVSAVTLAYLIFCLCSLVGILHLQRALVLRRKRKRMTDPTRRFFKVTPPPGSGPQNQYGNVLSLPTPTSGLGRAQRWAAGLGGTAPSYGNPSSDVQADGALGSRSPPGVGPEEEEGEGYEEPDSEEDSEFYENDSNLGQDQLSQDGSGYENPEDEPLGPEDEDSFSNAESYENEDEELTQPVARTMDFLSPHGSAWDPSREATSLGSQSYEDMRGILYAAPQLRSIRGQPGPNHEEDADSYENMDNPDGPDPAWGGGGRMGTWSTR
Procedure: as §1
The FACS-based binding assay was also carried out for CD19. In this experiment CD19 and a secondary antibody was as a negative control. In this experiment, all assayed constructs achieved a MFI of at least 80 while the MFI of the negative control was ca. 3.

[3] = target: T1, human CD3; assay: FACS on CD3-enriched PBMCs
[4] = target: T1, human CD3; assay: FACS, 10 µg/ml on Jurkat cells
Procedure: (§2) Binding of the bispecific single chain molecules with anti-CD3 part in N-terminal orientation to EpCAM and CD3 were confirmed by FACS analyses. For that purpose the EpCAM positive human gastric cancer cell line Kato III (ATCC HTB-103) was used.
(§3) Cells were cultured according to the recommendations of the supplier and a number of 200000 cells was incubated with 10 μg/ml of the construct in 50 μl PBS with 2% FCS (fetal calf serum). The binding of the construct was detected with an anti-His antibody (Penta-His Antibody, obtained from Qiagen, Hilden, FRG) at 2 μg/ml in PBS with 2% FCS. […] The samples were measured on a FACSscan (BD biosciences, Heidelberg, FRG).

[5] = target: T3, Epithelial cell adhesion molecule (EpCAM) (human, UniProt P16422 24-314); assay: FACS, 10 µg/ml on EpCAM positive Kato III cells
T3 construct: whole, on cells; also called 17-1A antigen; KSA
T3 sequence (looked up): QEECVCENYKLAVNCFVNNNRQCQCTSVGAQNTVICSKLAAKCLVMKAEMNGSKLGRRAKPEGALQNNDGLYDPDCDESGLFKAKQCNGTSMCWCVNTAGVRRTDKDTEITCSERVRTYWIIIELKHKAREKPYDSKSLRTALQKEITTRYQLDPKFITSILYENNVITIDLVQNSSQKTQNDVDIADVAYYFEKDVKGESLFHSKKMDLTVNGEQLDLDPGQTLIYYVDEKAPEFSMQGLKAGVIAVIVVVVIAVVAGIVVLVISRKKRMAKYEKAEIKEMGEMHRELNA
Procedure: as §2, §3

Binder | MFI [1] | MFI [2] | binding result [3] | binding result [4] | binding result [5]
anti-CD19×anti-CD3 (VH3/VL1) (SEQ ID NO.:184) (bispecific antibody, As m4: bispecific single chain, His-tagged; also called pEF anti-CD19×anti-CD3 (VH3/VL1)) DIQLTQSPASLAVSLGQRATISCKASQSVDYDGDSYLNWYQQIPGQPPKLLIYDASNLVSGIPPRFSGSGSGTDFTLNIHPVEKVDAATYHCQQSTEDPWTFGGGTKLEIKGGGGSGGGGSGGGGSQVQLQQSGAELVRPGSSVKISCKASGYAFSSYWMNWVKQRPGQGLEWIGQIWPGDGDTNYNGKFKGKATLTADESSSTAYMQLSSLASEDSAVYFCARRETTTVGRYYYAMDYWGQGTTVTVSSGGGGSDVQLVQSGAEVKKPGASVKVSCKASGYTATRYTMHWVRQAPGQGLEWIGYINPSRGYTNYAQKLQGRVTMTTDTSTSTAYLQMNSLKTEDTAVYYCARYYDDHYCLDYWGQGTTVTVSSGEGTSTGSGGSGGSGGADDIQMTQSPSSLSASVGDRVTITCRASQSVSYMNWYQQKPGKAPKRWIYDTSKVASGVPARFSGSGSGTDYSLTINSLEAEDAATYYCQQWSSNPLTFGGGTKVEIK | ~6 MFI | ≥ 80 MFI | no binding (tested: non-diluted supernatant) |  | 
deimmunized anti-CD3 (VH5/VL2)×5-10 (SEQ ID NO.:37) (bispecific antibody, Bispecific single chain, VH(CD3)-VL(CD3)-VH(EpCAM)-VL(EpCAM); expressed in CHO with a leader peptide; detected by anti-His) DVQLVQSGAEVKKPGASVKVSCKASGYTFTRYTMHWVRQAPGQGLEWIGYINPSRGYTNYADSVKGRFTITTDKSTSTAYMELSSLRSEDTATYYCARYYDDHYCLDYWGQGTTVTVSSGEGTSTGSGGSGGSGGADDIVLTQSPATLSLSPGERATLSCRASQSVSYMNWYQQKPGKAPKRWIYDTSKVASGVPARFSGSGSGTDYSLTINSLEAEDAATYYCQQWSSNPLTFGGGTKVEIKSGGGGSEVQLLEQSGAELVRPGTSVKISCKASGYAFTNYWLGWVKQRPGHGLEWIGDIFPGSGNIHYNEKFKGKATLTADKSSSTAYMQLSSLTFEDSAVYFCARLRNWDEPMDYWGQGTTVTVSSGGGGSGGGGSGGGGSELVMTQSPSSLTVTAGEKVTMSCKSSQSLLNSGNQKNYLTWYQQKPGQPPKLLIYWASTRESGVPDRFTGSGSGTDFTLTISSVQAEDLAVYYCQNDYSYPLTFGAGTKLEIK |  |  |  | binds | binds
deimmunized anti-CD3 (VH5/VL2)×4-7 (SEQ ID NO.:33) (bispecific antibody, Bispecific single chain, VH(CD3)-VL(CD3)-VH(EpCAM)-VL(EpCAM); detected by anti-His; also called anti-CD3 (VH5/VL2)x4-7) DVQLVQSGAEVKKPGASVKVSCKASGYTFTRYTMHWVRQAPGQGLEWIGYINPSRGYTNYADSVKGRFTITTDKSTSTAYMELSSLRSEDTATYYCARYYDDHYCLDYWGQGTTVTVSSGEGTSTGSGGSGGSGGADDIVLTQSPATLSLSPGERATLSCRASQSVSYMNWYQQKPGKAPKRWIYDTSKVASGVPARFSGSGSGTDYSLTINSLEAEDAATYYCQQWSSNPLTFGGGTKVEIKSGGGGSEVQLLEQSGAELARPGASVKLSCKASGYTFTNYGLSWVKQRPGQVLEWIGEVYPRIGNAYYNEKFKGKATLTADKSSSTASMELRSLTSEDSAVYFCARRGSYDTNYDWYFDVWGQGTTVTVSSGGGGSGGGGSGGGGSELVMTQTPLSLPVSLGDQASISCRSSQSLVHSNGNTYLHWYLQKPGQSPKLLIYKVSNRFSGVPDRFSGSGSGTDFTLKISRVEAEDLGVYFCSQSTHVPYTFGGGTKLEIK |  |  |  | binds | binds
deimmunized anti-CD3 (VH5/VL2)×3-1 (SEQ ID NO.:31) (bispecific antibody, Bispecific single chain, VH(CD3)-VL(CD3)-VH(EpCAM)-VL(EpCAM); detected by anti-His) DVQLVQSGAEVKKPGASVKVSCKASGYTFTRYTMHWVRQAPGQGLEWIGYINPSRGYTNYADSVKGRFTITTDKSTSTAYMELSSLRSEDTATYYCARYYDDHYCLDYWGQGTTVTVSSGEGTSTGSGGSGGSGGADDIVLTQSPATLSLSPGERATLSCRASQSVSYMNWYQQKPGKAPKRWIYDTSKVASGVPARFSGSGSGTDYSLTINSLEAEDAATYYCQQWSSNPLTFGGGTKVEIKSGGGGSEVQLLEQSGAELVKPGASVKISCKASGYAFTNYWLGWVKQRPGHGLEWIGDLFPGSGNTHYNERFRGKATLTADKSSSTAFMQLSSLTSEDSAVYFCARLRNWDEAMDYWGQGTTVTVSSGGGGSGGGGSGGGGSELVMTQSPSYLAASPGETITINCRASKSISKYLAWYQEKPGKTNKLLIYSGSTLQSGIPSRFSGSGSGTDFTLTISSLEPEDFAMYYCQQHNEYPYTFGGGTKLEIK |  |  |  | binds | binds
deimmunized anti-CD3 (VH5/VL2)×4-7 (VL-VH) (SEQ ID NO.:35) (bispecific antibody, Bispecific single chain, VH(CD3)-VL(CD3)-VL(EpCAM)-VH(EpCAM); detected by anti-His; also called anti-CD3 (VH5/VL2)x4-7 (VL-VH)) DVQLVQSGAEVKKPGASVKVSCKASGYTFTRYTMHWVRQAPGQGLEWIGYINPSRGYTNYADSVKGRFTITTDKSTSTAYMELSSLRSEDTATYYCARYYDDHYCLDYWGQGTTVTVSSGEGTSTGSGGSGGSGGADDIVLTQSPATLSLSPGERATLSCRASQSVSYMNWYQQKPGKAPKRWIYDTSKVASGVPARFSGSGSGTDYSLTINSLEAEDAATYYCQQWSSNPLTFGGGTKVEIKSGGGGSELVMTQTPLSLPVSLGDQASISCRSSQSLVHSNGNTYLHWYLQKPGQSPKLLIYKVSNRFSGVPDRFSGSGSGTDFTLKISRVEAEDLGVYFCSQSTHVPYTFGGGTKLEIKGGGGSGGGGSGGGGSEVQLLEQSGAELARPGASVKLSCKASGYTFTNYGLSWVKQRPGQVLEWIGEVYPRIGNAYYNEKFKGKATLTADKSSSTASMELRSLTSEDSAVYFCARRGSYDTNYDWYFDVWGQGTTVTVSS |  |  |  | binds | binds
deimmunized anti-CD3 (VH5/VL2)×5-10 (VL-VH) (SEQ ID NO.:39) (bispecific antibody, Bispecific single chain, VH(CD3)-VL(CD3)-VL(EpCAM)-VH(EpCAM); detected by anti-His; also called anti-CD3 (VH5/VL2)x5-10 (VL-VH)) DVQLVQSGAEVKKPGASVKVSCKASGYTFTRYTMHWVRQAPGQGLEWIGYINPSRGYTNYADSVKGRFTITTDKSTSTAYMELSSLRSEDTATYYCARYYDDHYCLDYWGQGTTVTVSSGEGTSTGSGGSGGSGGADDIVLTQSPATLSLSPGERATLSCRASQSVSYMNWYQQKPGKAPKRWIYDTSKVASGVPARFSGSGSGTDYSLTINSLEAEDAATYYCQQWSSNPLTFGGGTKVEIKSGGGGSELVMTQSPSSLTVTAGEKVTMSCKSSQSLLNSGNQKNYLTWYQQKPGQPPKLLIYWASTRESGVPDRFTGSGSGTDFTLTISSVQAEDLAVYYCQNDYSYPLTFGAGTKLEIKGGGGSGGGGSGGGGSEVQLLEQSGAELVRPGTSVKISCKASGYAFTNYWLGWVKQRPGHGLEWIGDIFPGSGNIHYNEKFKGKATLTADKSSSTAYMQLSSLTFEDSAVYFCARLRNWDEPMDYWGQGTTVTVSS |  |  |  | binds | binds
